According to patent US11541128B2, “Multi-drug antibody drug conjugates” (Seagen Inc., priority 2016, dated 2023):

B1: hBU12 Co-Conjugate (conjugate, chains of the INN, looked up)
VH: QVQLQESGPGLVKPSQTLSLTCTVSGGSISTSGMGVGWIRQHPGKGLEWIGHIWWDDDKRYNPALKSRVTISVDTSKNQFSLKLSSVTAADTAVYYCARMELWSYYFDYWGQGTLVTVSS
VL: EIVLTQSPATLSLSPGERATLSCSASSSVSYMHWYQQKPGQAPRLLIYDTSKLASGIPARFSGSGSGTDFTLTISSLEPEDVAVYYCFQGSVYPFTFGQGTKLEIK
modifications: co-conjugate with two drug payloads
B2: hBU12-Linking Assembly Unit Aa-Comp. Aa (8) (conjugate, chains of the INN, looked up)
VH: B1 VH
VL: B1 VL
modifications: linker assembly with compound Aa
B3: hBU12-Linking Assembly Unit Aa-Comp. Aa (16) (conjugate, chains of the INN, looked up)
VH: B1 VH
VL: B1 VL
modifications: Linking Assembly Unit Aa-Compound Aa drug conjugate
B4: hBU12-Linking Assembly Unit Aa-Comp. Aa (8)-Comp. Ah (8) (conjugate, chains of the INN, looked up)
VH: B1 VH
VL: B1 VL
modifications: linker assembly with compounds Aa and Ah
B5: hBU12-Linking Assembly Unit Aa-Comp. Ab (8) (conjugate, chains of the INN, looked up)
VH: B1 VH
VL: B1 VL
modifications: linker assembly with compound Ab
B6: hBU12-Linking Assembly Unit Aa-Comp. Ab (16) (conjugate, chains of the INN, looked up)
VH: B1 VH
VL: B1 VL
modifications: linker assembly with compound Ab
B7: hBU12-Linking Assembly Unit Aa-Comp. Ah (8) (conjugate, chains of the INN, looked up)
VH: B1 VH
VL: B1 VL
modifications: linker assembly with compound Ah
B8: hBU12-Linking Assembly Unit Aa-Comp. Ab (8) Comp. Aa (8) (conjugate, chains of the INN, looked up)
VH: B1 VH
VL: B1 VL
modifications: linker assembly with compounds Ab and Aa
B9: hLIV22-Linking Assembly Unit Aa (8)-MMAE (16) (conjugate, chains of the INN, looked up)
VH: QVQLVQSGAEVKKPGASVKVSCKASGLTIEDYYMHWVRQAPGQGLEWMGWIDPENGDTEYGPKFQGRVTMTRDTSINTAYMELSRLRSDDTAVYYCAVHNAHYGTWFAYWGQGTLVTVSS
VL: DVVMTQSPLSLPVTLGQPASISCRSSQSLLHSSGNTYLEWYQQRPGQSPRPLIYKISTRFSGVPDRFSGSGSGTDFTLKISRVEAEDVGVYYCFQGSHVPYTFGGGTKVEIK
modifications: Linking Assembly Unit Aa-MMAE conjugate
B10: hLIV22-Linking Assembly Unit Aa (8)-Comp. Aa (8)-MMAE (8) (conjugate, chains of the INN, looked up)
VH: B9 VH
VL: B9 VL
modifications: Linking Assembly Unit Aa, Compound Aa, MMAE conjugate

Tests used:
[1] = tested on: CD30(−) U-266 cells; assay: Binding to CD30(−) cells; conditions: CD30(−) U-266 cells (not shown)
[2] = tested on: SU-DHL-16; assay: In vitro cytotoxicity, SU-DHL-16; type: cell-based; conditions: co-administration IC50 vs co-conjugate IC50
[3] = tested on: Granta-519; assay: In vitro cytotoxicity, Granta-519; type: cell-based; conditions: co-administration IC50 vs co-conjugate IC50
[4] = tested on: RL; assay: In vitro cytotoxicity, RL; type: cell-based; conditions: hBU12 conjugates targeting CD19
[5] = tested on: Nalm-6; assay: In vitro cytotoxicity, Nalm-6; type: cell-based; conditions: hBU12 conjugates targeting CD19
[6] = tested on: Raji; assay: In vitro cytotoxicity, Raji; type: cell-based; conditions: hBU12 conjugates targeting CD19
[7] = tested on: WSU-DLCL2; assay: In vitro cytotoxicity, WSU-DLCL2; type: cell-based; conditions: hBU12 conjugates targeting CD19
[8] = tested on: MCF-7 breast carcinoma cells; assay: Colony forming assay, MCF-7; type: cell-based; conditions: ADC 100 ng/mL for 48 hours, recovery 7-9 days, N=2
Procedure: This analysis was conducted on either JHH-7 (hepatocarcinoma cells) or MCF-7 (LIV-1positive) cells using antigen specific dual-auristatin ADCs. […] A dual-auristatin ADC targeting the LIV-1antigen on MCF-7 cells also allowed for less outgrowth of resistant colonies compared to single-drug ADCs.
For testing of LIV-1 targeted ADCs, MCF-7 breast carcinoma cells (ATCC) were plated in 6-well tissue culture plates at a density of 10,000 cells per well. ADCs were added to cells at a concentration of 100 ng/mL for 48 hours. At this time, media was removed and cells were washed with PBS. Fresh media was added and the cells allowed to recover for 7-9 days. Cells were then washed with PBS, fixed with 3.7% paraformaldehyde, stained with 0.5% crystal violet, and then counted. Each condition was conducted with N=2.

Row | Molecule | IC50 [4] | IC50 [5] | IC50 [6] | IC50 [7] | other results
1 | cAC10: Chimeric anti-CD30 monoclonal antibody, naked antibody |  |  |  |  | binding to CD30(−) U-266 cells [1]: Neither cAC10 or cAC10-4-(3-1) bound
2 | B1 |  |  |  |  | Fold difference [2]: 2.5; Fold difference [3]: 41.5
3 | B2 | 4 ng/mL | 8 ng/mL |  |  | 
4 | B3 |  |  | 2.1 ng/mL | 1.5 ng/mL | 
5 | B4 | 2 ng/mL |  | 5 ng/mL | 2 ng/mL | 
6 | B5 | 340 ng/mL | 5 ng/mL |  |  | 
7 | B6 |  |  | 6.9 ng/mL | 8.6 ng/mL | 
8 | B7 | 60 ng/mL | 9 ng/mL | 97 ng/mL | 7 ng/mL | 
9 | B8 | 1 ng/mL | 2 ng/mL | 1.6 ng/mL |  | 
10 | B9 |  |  |  |  | Colony forming units [8]: 42.5
11 | B10 |  |  |  |  | Colony forming units [8]: 19.5
